{"source": "paper PMC11162469", "about": "“Discovery of RXFP2 genetic association in resistant hypertensive men and RXFP2 antagonists for the treatment of resistant hypertension” (Scientific Reports, 2024)", "molecules": {"B1": {"name": "3F1: RXFP2 monoclonal antibody from hybridoma, recombinantly expressed in a rat IgG2b backbone (antibody, V domains shown)", "VH": "QVQLKESGPGLVAPSQSLSITCTVSGFSLTDYGVSWIRQPPGKGLEWLGVIWGGGSTDYNPALKSRLSISKDNSKSQVFLKMNSLQADDTAMYYCVKHEGYYAMDYWGQGTSVTVSS", "VL": "DIQMTQSPASLSVSVGETVTITCRASENIYSNLAWYQQKQGKSPHLLVYAVTNLADGVPSRFSGSGSGTQYSLKINSLQSEDFGSYYCQHFWGTPYTFGGGTKLEIK"}, "B2": {"name": "4B8: RXFP2 monoclonal antibody from hybridoma, recombinantly expressed in a rat IgG2b backbone (antibody, V domains shown)", "VH": "QVQLKQSGPGLVQPSQSLSITCTVSGFSLSRYGVHWVRQSPGKGLEWLGVIWSGGSTEYNAVFKSRLSISKDNSKSQVFFKMNSLQANDTAIYYCVRADGYYAMEYWGQGTSVTVSS", "VL": "B1 VL with H45Q, S85N"}, "B3": {"name": "4H1: RXFP2 monoclonal antibody from hybridoma, recombinantly expressed in a rat IgG2b backbone (antibody, V domains shown)", "VH": "QIQLVQSGPELKKPGETVKISCKTSGYTFTKYPMHWVKQAPGEGLKWMGWINTYSGLPTFADDFKGRFAFSLETSANTADLQINNLKNEDMATYFCAREGKKLSGYFDYWGQGTTLTVSS", "VL": "DIKMTQSPSSMYASLGERVTITCKASQDINSYLTWFQQKPGQSPKTLIYRANRFVDGVPSRFSGSGSGQDYSLTITSLEYEDMGIYYCLQYDEFPYTFGGGTQLEIK"}, "B4": {"name": "4H5: RXFP2 monoclonal antibody from hybridoma, recombinantly expressed in a rat IgG2b backbone (antibody, V domains shown)", "VH": "QVQLKQSGPGLVQPSQSLSITCTVSGFSLTNYGVHWVRQSPGKGLEWLGVIWRDGNTDYNAAFMSRLSITKDNSKSQVFFEMNSLQVDDTAIYYCCRGDGYYAMGYWGQGTSVTVSS", "VL": "B1 VL with K39R, K42R, H45Q, V51A, S85N, T94S, Y96R"}, "B5": {"name": "3H1: RXFP2 monoclonal antibody from hybridoma, recombinantly expressed in a rat IgG2b backbone (antibody, V domains shown)", "VH": "QVQLKETGPGLVAPSQSLSITCTVSGFSLTNYGVNWVRQPPGKGLEWLVVIWSDGSTNYNSALKSRLSISKDNSKSQVFLKMNSLQTDDTAMYYCARQQGYYAMDYWGQGTSVIVSS", "VL": "B1 VL with H45Q, T94P"}, "B6": {"name": "4A5: RXFP2 monoclonal antibody from hybridoma, recombinantly expressed in a rat IgG2b backbone (antibody, V domains shown)", "VH": "DVQLVESGGGLVQPGGSRKLSCAASGFTFSTFGMHWVRQAPEKGLEWVAYISSGSSTIYYADTVKGRFTISRDNPKNTLFLQMTSLRSDDTAMYYCSRSYYGSAHYFDYWGQGTTLTVSS", "VL": "B1 VL with H45Q, A50V, V51A, K74R, S77N, S85N, Y96P"}, "B7": {"name": "3G4: RXFP2 monoclonal antibody from hybridoma, recombinantly expressed in a rat IgG2b backbone (antibody, V domains shown)", "VH": "QVQLKESGPGLVAPSQSLSITCTVSGFSLTSYGVSWVRQPPGKGLEWLGVIWGDGSTNYHSALISRLSISKDNSKSQVFLKLNSLQTDDTATYYCAKSLGYYAMDYWGQGTSVTVSS", "VL": "B1 VL with A34V, H45Q, V51A, D56E, T94P, Y96W"}, "B8": {"name": "4H2: RXFP2 monoclonal antibody from hybridoma, recombinantly expressed in a rat IgG2b backbone (antibody, V domains shown)", "VH": "QVQLRQSGPSLVQPSQSLSITCTVSGFSLTNYGVHWVRQSPGKGLEWLGVIWRGGNTDHNAAFMSRLSITKDNSESQVFFKMNSLQVDDTAIYYCAKAEGYYALDYWGQGTSVTVYS", "VL": "B1 VL with H45Q, Y96W"}, "B9": {"name": "1G1: RXFP2 monoclonal antibody from hybridoma, recombinantly expressed in a rat IgG2b backbone (antibody, V domains shown)", "VH": "EVQLQQSGPELVKPGASVKMSCKASGYTFTDYNMHWVKQKPGQGLEWIGYINPYNDGTEYNEKFKGKATLTSDKSSSTAYMDLSSLTSEDSAVYYCARGLWFAMNYWGQGTSVTVSS", "VL": "DIQMTQSSSSFSVSLGDRVTITCKASEDIYNRLAWYQQKPGNTPRLLISGATILETGVPSRFSGSGSGKDYTLSIISLQTEDVATYYCQQYWIIPPTFGGGTKLEIK"}, "B10": {"name": "3F3: RXFP2 monoclonal antibody from hybridoma, recombinantly expressed in a rat IgG2b backbone (antibody, V domains shown)", "VH": "QVQLQQPGSVLVRPGASVKLSCKASGYIFTSYWMHWVKQRPGQGLEWIGEIYPNSGRTSYNEKFKGKATVTVDTSSSTAYVDLSSLTSEDSAVYYCASGGHWFAYWGQGTLVTVSA", "VL": "B9 VL with T43A, I53S, T56A, I76T, A84S, I94T, P96Y"}}, "note": "Residue numbers refer to the chain shown, from its start.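 For HEK293-rat RXFP2 cAMP % Max Response in this document: cAMP measured with an HitHunter kit in 384-well plates, 11-point dose–response curves up to 1 µM antibody, four-parameter variable-slope fit.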", "data": [{"target": "human RXFP2 (Homo sapiens, UniProt Q8WXD0)", "sequence (Q8WXD0 whole entry)": "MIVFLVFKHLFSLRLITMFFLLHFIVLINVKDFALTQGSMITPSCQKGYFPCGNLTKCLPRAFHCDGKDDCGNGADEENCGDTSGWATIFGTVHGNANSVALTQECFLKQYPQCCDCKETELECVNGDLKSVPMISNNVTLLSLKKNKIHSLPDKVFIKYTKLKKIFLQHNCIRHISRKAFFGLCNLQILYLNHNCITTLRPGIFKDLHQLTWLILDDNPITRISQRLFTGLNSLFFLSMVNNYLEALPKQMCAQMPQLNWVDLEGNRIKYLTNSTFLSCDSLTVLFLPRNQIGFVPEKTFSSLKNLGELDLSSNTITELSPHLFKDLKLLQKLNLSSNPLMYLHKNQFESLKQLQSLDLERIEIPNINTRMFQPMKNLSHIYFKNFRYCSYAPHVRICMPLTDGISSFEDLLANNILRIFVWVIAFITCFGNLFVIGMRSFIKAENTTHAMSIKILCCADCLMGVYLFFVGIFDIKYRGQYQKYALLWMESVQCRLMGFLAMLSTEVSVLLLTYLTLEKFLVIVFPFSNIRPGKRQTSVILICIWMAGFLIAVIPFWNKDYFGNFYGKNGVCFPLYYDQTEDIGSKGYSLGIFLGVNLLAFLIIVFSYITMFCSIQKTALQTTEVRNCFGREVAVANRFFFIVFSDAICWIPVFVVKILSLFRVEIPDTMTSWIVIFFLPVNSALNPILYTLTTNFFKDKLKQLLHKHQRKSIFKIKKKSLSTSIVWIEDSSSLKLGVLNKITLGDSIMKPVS", "assay": "INSL3-stimulated cAMP assay in HEK293 stably expressing human RXFP2", "conditions": "read-out: HEK293-human RXFP2 cAMP IC50; INSL3 EC80-stimulated cAMP, stable expression; N = 2", "units": {"IC50": "nM"}, "values": [{"molecule": "B1", "IC50": "~589"}, {"molecule": "B2", "IC50": "~116"}, {"molecule": "B3", "IC50": "~218"}]}, {"target": "T1, rat RXFP2 (Rattus norvegicus, UniProt F7EMH8)", "T1 sequence (F7EMH8 20-737)": "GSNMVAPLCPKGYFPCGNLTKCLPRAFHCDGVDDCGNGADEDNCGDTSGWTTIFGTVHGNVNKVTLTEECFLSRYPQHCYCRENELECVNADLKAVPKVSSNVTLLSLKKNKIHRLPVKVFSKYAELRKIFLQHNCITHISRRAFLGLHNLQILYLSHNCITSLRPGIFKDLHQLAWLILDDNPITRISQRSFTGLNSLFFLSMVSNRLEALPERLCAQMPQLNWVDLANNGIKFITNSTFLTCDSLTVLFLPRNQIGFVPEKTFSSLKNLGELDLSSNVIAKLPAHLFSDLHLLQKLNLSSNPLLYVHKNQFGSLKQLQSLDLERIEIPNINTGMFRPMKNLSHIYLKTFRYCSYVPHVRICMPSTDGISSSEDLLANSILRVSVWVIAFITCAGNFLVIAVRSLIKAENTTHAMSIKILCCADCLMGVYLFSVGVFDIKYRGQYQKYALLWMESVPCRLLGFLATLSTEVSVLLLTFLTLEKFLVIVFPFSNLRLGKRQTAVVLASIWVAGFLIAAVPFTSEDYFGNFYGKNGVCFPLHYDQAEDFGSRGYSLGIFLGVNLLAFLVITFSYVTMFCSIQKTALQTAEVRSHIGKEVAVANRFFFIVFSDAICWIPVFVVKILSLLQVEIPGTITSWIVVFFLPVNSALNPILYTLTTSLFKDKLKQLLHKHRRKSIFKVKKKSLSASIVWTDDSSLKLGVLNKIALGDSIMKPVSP", "assay": "INSL3-stimulated CYP11B1 mRNA expression in H295R stably expressing rat RXFP2", "type": "cell-based", "set-up": "expressed in transfected cells", "conditions": "INSL3 EC80 (3.5 nM), 48 h, qPCR; N = 2", "experimental": "(§1) RXFP2 antagonists were added to H295R-rRXFP2 before addition of INSL3 EC80 (3.5 nM) for 48 h, whereupon the cells and supernatants were collected. CYP11B1 and CYP11B2 mRNA were determined by qPCR and the RXFP2 blocker potencies were calculated (Fig. 5a). Fifteen antibodies have IC50s < 50 nM, and three of the top antibodies (1F2, 4G6, and 2D4) were selected for evaluation in steroid hormone secretion assays by ELISA.\n(§2) Data entered as XY table, with x = [Inhibitor] (nM) and y = CYP11B2 or CYP11B1 fold change.", "units": {"IC50": "nM"}, "values": [{"molecule": "B1", "IC50": 0.27}, {"molecule": "B4", "IC50": 0.21}, {"molecule": "B5", "IC50": 0.33}, {"molecule": "B6", "IC50": 2.85}, {"molecule": "B7", "IC50": 0.33}, {"molecule": "B2", "IC50": 0.23}, {"molecule": "B8", "IC50": 0.26}, {"molecule": "B9", "IC50": 0.27}, {"molecule": "B10", "IC50": 3.85}]}, {"target": "T1, rat RXFP2", "assay": "INSL3-stimulated CYP11B2 mRNA expression in H295R stably expressing rat RXFP2", "type": "cell-based", "set-up": "expressed in transfected cells", "conditions": "INSL3 EC80 (3.5 nM), 48 h, qPCR; N = 2", "experimental": "as §1, §2", "units": {"IC50": "nM"}, "values": [{"molecule": "B1", "IC50": 0.23}, {"molecule": "B4", "IC50": 0.15}, {"molecule": "B5", "IC50": 0.16}, {"molecule": "B6", "IC50": 0.31}, {"molecule": "B7", "IC50": 0.2}, {"molecule": "B2", "IC50": 0.17}, {"molecule": "B8", "IC50": 0.13}, {"molecule": "B9", "IC50": 0.17}, {"molecule": "B10", "IC50": 0.51}]}, {"system": "not listed separately", "assay": "Pharmacokinetic study of RXFP2 mAbs in rat", "type": "in vivo, Wistar Han rats", "conditions": "Wistar Han rats, 1 mg/kg sc., over 28 days", "experimental": "(§3) For the pharmacokinetic study of RXFP2 mAbs in rat, 1G1, 2D4, 4B1, 4G6, 1F2, and 3F3 were prepared in phosphate buffered saline (0.100 mg/mL) with low endotoxin (≤ 0.76 EU/mL). Adult male Wistar Han rats (n = 3/mAb) were administered 1 mg/kg subcutaneously (10 mL/kg). Blood samples (100 µL) were collected in EDTA containing tubes at 0.25, 3, 6 24, 48, 96, 168 (day 7), 336 (day 14), 504 (day 21), and 672 (day 28) hours post dose, immediately centrifuged (6100 rpm), and 50 µL plasma stored at − 80 °C until assay. Rats maintained health throughout the study and were anesthetized (isoflurane to effect) and euthanized on day 28.\n(§4) Frozen rat plasma samples were thawed and analyzed using a qualified analytical method based on sample dilution, followed by Electrochemiluminescence immunoassay analysis. The lower limit of quantification (LLQ) was 0.1 µg/mL using a 10 µL aliquot of 51-fold diluted rat plasma with a higher limit of quantification (HLQ) of 10 µg/mL. RXFP2 mAbs were captured with LDLa protein and detected with sulfo-tag labeled mouse anti-rat IgG2b. The computer systems that were used to acquire and quantify data included Gyrolab Workstation Version 8.1.5 and Watson LIMS version 7.6.1. Rat pharmacokinetic parameters were calculated by non-compartmental analysis (NCA) analysis using WinNonlin Phoenix 64 (version 8.3). Values are reported in mean ± standard deviation.", "units": {"half-life, extrapolated values": "h"}, "values": [{"molecule": "B9", "half-life, extrapolated values": "≥ 264"}, {"molecule": "B10", "half-life, extrapolated values": "≥ 264"}]}, {"system": "not listed separately", "assay": "Pharmacokinetic study of RXFP2 mAbs in rat", "type": "in vivo, Wistar Han rats", "conditions": "from trough concentration, dose-linearity assumed", "experimental": "as §3, §4", "values": [{"molecule": "B9", "estimated dose to achieve tenfold higher IC50 HEK-rRXFP2 cAMP activity for approximately 28 days in rat": "approximately 10 mg/kg"}]}, {"system": "not listed separately", "assay": "Pharmacokinetic study of RXFP2 mAbs in rat", "type": "in vivo, Wistar Han rats", "conditions": "male Wistar Han rats, 1 mg/kg s.c., n = 3, mean ± SD", "experimental": "as §3, §4", "units": {"AUClast": "µg·h/mL", "Cmax": "ng/mL", "Tmax": "h"}, "values": [{"molecule": "B9", "AUClast": "4490 ± 467", "Cmax": "9820 ± 766", "Tmax": "120 ± 42"}, {"molecule": "B10", "AUClast": "987 ± 200", "Cmax": "2350 ± 858", "Tmax": "168 ± 0"}]}, {"target": "T1, rat RXFP2", "assay": "INSL3-stimulated cAMP assay in HEK293 stably expressing rat RXFP2", "conditions": "INSL3 EC80-stimulated cAMP, stable expression; N = 2", "units": {"HEK293-rat RXFP2 cAMP % Max Response": "%"}, "procedure": "RXFP activity assays were developed in HEK293 with stable expression of RXFP2 or RXFP1.\nThe same approach was used to generate stable HEK293 lines expressing human and rat RXFP1 and RXFP2 cDNA. The cAMP assay was conducted using the Eurofin Hithunter kit per manufacturer’s instructions in a 384-well format. All dose curve fitting and EC50 and IC50 determinations were performed in Prism (v9.3.0) using the non-linear fit, variable slope (four parameter) function.", "values": [{"molecule": "B1", "HEK293-rat RXFP2 cAMP % Max Response": 69.7}, {"molecule": "B4", "HEK293-rat RXFP2 cAMP % Max Response": 89.2}, {"molecule": "B5", "HEK293-rat RXFP2 cAMP % Max Response": 71.6}, {"molecule": "B6", "HEK293-rat RXFP2 cAMP % Max Response": 91.0}, {"molecule": "B7", "HEK293-rat RXFP2 cAMP % Max Response": 83.3}, {"molecule": "B2", "HEK293-rat RXFP2 cAMP % Max Response": 86.6}, {"molecule": "B8", "HEK293-rat RXFP2 cAMP % Max Response": 85.7}, {"molecule": "B3", "HEK293-rat RXFP2 cAMP % Max Response": 69.7}, {"molecule": "B9", "HEK293-rat RXFP2 cAMP % Max Response": 87.2}, {"molecule": "B10", "HEK293-rat RXFP2 cAMP % Max Response": 78.5}]}, {"target": "T1, rat RXFP2", "assay": "INSL3-stimulated cAMP assay in HEK293 stably expressing rat RXFP2", "conditions": "read-out: HEK293-rat RXFP2 cAMP IC50; INSL3 EC80-stimulated cAMP, stable expression; N = 2", "units": {"IC50": "nM"}, "values": [{"molecule": "B1", "IC50": 19.9}, {"molecule": "B4", "IC50": 14.2}, {"molecule": "B5", "IC50": 15.8}, {"molecule": "B6", "IC50": 23.2}, {"molecule": "B7", "IC50": 16.1}, {"molecule": "B2", "IC50": 21.4}, {"molecule": "B8", "IC50": 18.9}, {"molecule": "B3", "IC50": 150}, {"molecule": "B9", "IC50": 28}, {"molecule": "B10", "IC50": 37}]}]}
